Tests used:
[1] = molecular target: truncated TSH receptor chimera B (extracellular portion) fused with the secretory alkaline phosphatase (human TSHR with rat LH-CGR subsequence); assay: bridge assay: standard at 0.1 IU/L on plate-bound TSH receptor chimera B, detected with SEAP-chimera B, chemiluminescence
[2] = molecular target: truncated TSH receptor chimera B (extracellular portion) fused with the secretory alkaline phosphatase (human TSHR with rat LH-CGR subsequence); assay: bridge assay: standard at 0.2 IU/L on plate-bound TSH receptor chimera B, detected with SEAP-chimera B, chemiluminescence
[3] = molecular target: truncated TSH receptor chimera B (extracellular portion) fused with the secretory alkaline phosphatase (human TSHR with rat LH-CGR subsequence); assay: bridge assay: standard at 0.3 IU/L on plate-bound TSH receptor chimera B, detected with SEAP-chimera B, chemiluminescence
[4] = molecular target: truncated TSH receptor chimera B (extracellular portion) fused with the secretory alkaline phosphatase (human TSHR with rat LH-CGR subsequence); assay: bridge assay: standard at 0.4 IU/L on plate-bound TSH receptor chimera B, detected with SEAP-chimera B, chemiluminescence
[5] = molecular target: truncated TSH receptor chimera B (extracellular portion) fused with the secretory alkaline phosphatase (human TSHR with rat LH-CGR subsequence); assay: bridge assay: standard at 0.5 IU/L on plate-bound TSH receptor chimera B, detected with SEAP-chimera B, chemiluminescence
[6] = molecular target: truncated TSH receptor chimera B (extracellular portion) fused with the secretory alkaline phosphatase (human TSHR with rat LH-CGR subsequence); assay: bridge assay: standard at 0.6 IU/L on plate-bound TSH receptor chimera B, detected with SEAP-chimera B, chemiluminescence
[7] = molecular target: truncated TSH receptor chimera B (extracellular portion) fused with the secretory alkaline phosphatase (human TSHR with rat LH-CGR subsequence); assay: bridge assay: standard at 0.7 IU/L on plate-bound TSH receptor chimera B, detected with SEAP-chimera B, chemiluminescence
[8] = molecular target: truncated TSH receptor chimera B (extracellular portion) fused with the secretory alkaline phosphatase (human TSHR with rat LH-CGR subsequence); assay: bridge assay: standard at 0.8 IU/L on plate-bound TSH receptor chimera B, detected with SEAP-chimera B, chemiluminescence
[9] = molecular target: truncated TSH receptor chimera B (extracellular portion) fused with the secretory alkaline phosphatase (human TSHR with rat LH-CGR subsequence); assay: bridge assay: standard at 0.9 IU/L on plate-bound TSH receptor chimera B, detected with SEAP-chimera B, chemiluminescence
[10] = molecular target: truncated TSH receptor chimera B (extracellular portion) fused with the secretory alkaline phosphatase (human TSHR with rat LH-CGR subsequence); assay: bridge assay: standard at 1.0 IU/L on plate-bound TSH receptor chimera B, detected with SEAP-chimera B, chemiluminescence
[11] = molecular target: truncated TSH receptor chimera B (extracellular portion) fused with the secretory alkaline phosphatase (human TSHR with rat LH-CGR subsequence); assay: bridge assay: standard at 2.0 IU/L on plate-bound TSH receptor chimera B, detected with SEAP-chimera B, chemiluminescence
[12] = molecular target: truncated TSH receptor chimera B (extracellular portion) fused with the secretory alkaline phosphatase (human TSHR with rat LH-CGR subsequence); assay: bridge assay: standard at 5.0 IU/L on plate-bound TSH receptor chimera B, detected with SEAP-chimera B, chemiluminescence
[13] = molecular target: truncated TSH receptor chimera B (extracellular portion) fused with the secretory alkaline phosphatase (human TSHR with rat LH-CGR subsequence); assay: bridge assay: standard at 15.0 IU/L on plate-bound TSH receptor chimera B, detected with SEAP-chimera B, chemiluminescence
[14] = molecular target: truncated TSH receptor chimera B (extracellular portion) fused with the secretory alkaline phosphatase (human TSHR with rat LH-CGR subsequence); assay: bridge assay: standard at 30.0 IU/L on plate-bound TSH receptor chimera B, detected with SEAP-chimera B, chemiluminescence
[15] = molecular target: truncated TSH receptor chimera B (extracellular portion) fused with the secretory alkaline phosphatase (human TSHR with rat LH-CGR subsequence); assay: bridge assay: standard at 50.0 IU/L on plate-bound TSH receptor chimera B, detected with SEAP-chimera B, chemiluminescence
[16] = molecular target: truncated TSH receptor chimera B (extracellular portion) fused with the secretory alkaline phosphatase (human TSHR with rat LH-CGR subsequence); assay: bridge assay: standard at 0.1 IU/L on plate-bound TSH receptor chimera B, detected with SEAP-chimera B; RLU relative to zero serum
[17] = molecular target: truncated TSH receptor chimera B (extracellular portion) fused with the secretory alkaline phosphatase (human TSHR with rat LH-CGR subsequence); assay: bridge assay: standard at 0.2 IU/L on plate-bound TSH receptor chimera B, detected with SEAP-chimera B; RLU relative to zero serum
[18] = molecular target: truncated TSH receptor chimera B (extracellular portion) fused with the secretory alkaline phosphatase (human TSHR with rat LH-CGR subsequence); assay: bridge assay: standard at 0.3 IU/L on plate-bound TSH receptor chimera B, detected with SEAP-chimera B; RLU relative to zero serum
[19] = molecular target: truncated TSH receptor chimera B (extracellular portion) fused with the secretory alkaline phosphatase (human TSHR with rat LH-CGR subsequence); assay: bridge assay: standard at 0.4 IU/L on plate-bound TSH receptor chimera B, detected with SEAP-chimera B; RLU relative to zero serum
[20] = molecular target: truncated TSH receptor chimera B (extracellular portion) fused with the secretory alkaline phosphatase (human TSHR with rat LH-CGR subsequence); assay: bridge assay: standard at 0.5 IU/L on plate-bound TSH receptor chimera B, detected with SEAP-chimera B; RLU relative to zero serum
[21] = molecular target: truncated TSH receptor chimera B (extracellular portion) fused with the secretory alkaline phosphatase (human TSHR with rat LH-CGR subsequence); assay: bridge assay: standard at 0.6 IU/L on plate-bound TSH receptor chimera B, detected with SEAP-chimera B; RLU relative to zero serum
[22] = molecular target: truncated TSH receptor chimera B (extracellular portion) fused with the secretory alkaline phosphatase (human TSHR with rat LH-CGR subsequence); assay: bridge assay: standard at 0.7 IU/L on plate-bound TSH receptor chimera B, detected with SEAP-chimera B; RLU relative to zero serum
[23] = molecular target: truncated TSH receptor chimera B (extracellular portion) fused with the secretory alkaline phosphatase (human TSHR with rat LH-CGR subsequence); assay: bridge assay: standard at 0.8 IU/L on plate-bound TSH receptor chimera B, detected with SEAP-chimera B; RLU relative to zero serum
[24] = molecular target: truncated TSH receptor chimera B (extracellular portion) fused with the secretory alkaline phosphatase (human TSHR with rat LH-CGR subsequence); assay: bridge assay: standard at 0.9 IU/L on plate-bound TSH receptor chimera B, detected with SEAP-chimera B; RLU relative to zero serum
[25] = molecular target: truncated TSH receptor chimera B (extracellular portion) fused with the secretory alkaline phosphatase (human TSHR with rat LH-CGR subsequence); assay: bridge assay: standard at 1.0 IU/L on plate-bound TSH receptor chimera B, detected with SEAP-chimera B; RLU relative to zero serum
[26] = molecular target: truncated TSH receptor chimera B (extracellular portion) fused with the secretory alkaline phosphatase (human TSHR with rat LH-CGR subsequence); assay: bridge assay: standard at 2.0 IU/L on plate-bound TSH receptor chimera B, detected with SEAP-chimera B; RLU relative to zero serum
[27] = molecular target: truncated TSH receptor chimera B (extracellular portion) fused with the secretory alkaline phosphatase (human TSHR with rat LH-CGR subsequence); assay: bridge assay: standard at 5.0 IU/L on plate-bound TSH receptor chimera B, detected with SEAP-chimera B; RLU relative to zero serum
[28] = molecular target: truncated TSH receptor chimera B (extracellular portion) fused with the secretory alkaline phosphatase (human TSHR with rat LH-CGR subsequence); assay: bridge assay: standard at 15.0 IU/L on plate-bound TSH receptor chimera B, detected with SEAP-chimera B; RLU relative to zero serum
[29] = molecular target: truncated TSH receptor chimera B (extracellular portion) fused with the secretory alkaline phosphatase (human TSHR with rat LH-CGR subsequence); assay: bridge assay: standard at 30.0 IU/L on plate-bound TSH receptor chimera B, detected with SEAP-chimera B; RLU relative to zero serum
[30] = molecular target: truncated TSH receptor chimera B (extracellular portion) fused with the secretory alkaline phosphatase (human TSHR with rat LH-CGR subsequence); assay: bridge assay: standard at 50.0 IU/L on plate-bound TSH receptor chimera B, detected with SEAP-chimera B; RLU relative to zero serum

truncated TSH receptor chimera B (extracellular portion) fused with the secretory alkaline phosphatase (human TSHR with rat LH-CGR subsequence), sequence (chain, as listed by the source mutant): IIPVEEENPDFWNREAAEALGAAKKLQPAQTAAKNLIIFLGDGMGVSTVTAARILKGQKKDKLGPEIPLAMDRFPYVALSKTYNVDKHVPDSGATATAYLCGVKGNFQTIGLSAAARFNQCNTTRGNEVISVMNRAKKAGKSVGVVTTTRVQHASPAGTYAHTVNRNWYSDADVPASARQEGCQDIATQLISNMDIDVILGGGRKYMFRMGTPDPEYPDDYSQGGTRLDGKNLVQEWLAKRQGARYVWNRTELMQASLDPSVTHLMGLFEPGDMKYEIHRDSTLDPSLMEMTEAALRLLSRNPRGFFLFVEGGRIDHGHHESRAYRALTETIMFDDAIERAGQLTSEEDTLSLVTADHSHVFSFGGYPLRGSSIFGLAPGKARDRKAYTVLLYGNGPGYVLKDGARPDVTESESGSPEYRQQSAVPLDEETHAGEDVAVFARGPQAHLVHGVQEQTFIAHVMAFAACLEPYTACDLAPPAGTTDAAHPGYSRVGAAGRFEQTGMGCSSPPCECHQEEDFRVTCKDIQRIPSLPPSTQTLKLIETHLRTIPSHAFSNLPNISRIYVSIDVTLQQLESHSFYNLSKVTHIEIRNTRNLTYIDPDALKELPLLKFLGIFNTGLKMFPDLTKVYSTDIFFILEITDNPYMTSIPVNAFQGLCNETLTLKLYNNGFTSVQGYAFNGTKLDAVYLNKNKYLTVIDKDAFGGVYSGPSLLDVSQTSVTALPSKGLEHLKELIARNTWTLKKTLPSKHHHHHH

Substance: standard solution WHO 90/672 with a standardized concentration of autoimmune antibody (TSH receptor auto-antibody standard)
- RLU Average n = 3 [1]: 28800 RLU
- RLU Average n = 3 [2]: 46600 RLU
- RLU Average n = 3 [3]: 65800 RLU
- RLU Average n = 3 [4]: 81500 RLU
- RLU Average n = 3 [5]: 98400 RLU
- RLU Average n = 3 [6]: 117000 RLU
- RLU Average n = 3 [7]: 136000 RLU
- RLU Average n = 3 [8]: 166000 RLU
- RLU Average n = 3 [9]: 192000 RLU
- RLU Average n = 3 [10]: 183000 RLU
- RLU Average n = 3 [11]: 382000 RLU
- RLU Average n = 3 [12]: 939000 RLU
- RLU Average n = 3 [13]: 2.48e+06 RLU
- RLU Average n = 3 [14]: 3.77e+06 RLU
- RLU Average n = 3 [15]: 4.85e+06 RLU
- B/B0 [16]: 4.19
- B/B0 [17]: 6.77
- B/B0 [18]: 9.57
- B/B0 [19]: 11.8
- B/B0 [20]: 14.3
- B/B0 [21]: 16.9
- B/B0 [22]: 19.7
- B/B0 [23]: 24.1
- B/B0 [24]: 27.9
- B/B0 [25]: 26.6
- B/B0 [26]: 55.5
- B/B0 [27]: 136
- B/B0 [28]: 361
- B/B0 [29]: 548
- B/B0 [30]: 704
